Read-outs that look alike come from different tables or passages of the source.
Experiments:
[1] = target: T1, E. coli FimH lectin domain truncate (UT189) (E. coli (UT189)); assay: BLI
T1 chain: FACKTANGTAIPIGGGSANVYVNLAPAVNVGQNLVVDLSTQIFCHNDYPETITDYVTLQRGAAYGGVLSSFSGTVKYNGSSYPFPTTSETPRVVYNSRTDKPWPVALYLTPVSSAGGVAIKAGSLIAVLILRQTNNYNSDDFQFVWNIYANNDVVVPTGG

[2] = target: T1, E. coli FimH lectin domain truncate …; assay: BLI

B1: Kp2 2C07 Fab (Fab, V domains shown)
VH: EVKLVESGEGLVKPGGSLKLSCAASGFTFSSYAMSWVRQTPEKRLDWVAYISSGGDHIYYADTVKGRFTISRDNARNTLYLQMSSLKSEDTAMYYCTRDTGYYVSRYFDVWGTGTTVTVSS
VL: DIVMTQSQKFMSTSVGDRVSVTCKASQNVVTNVAWYQQKSGQSPKVVIYSASFRSSGVPDRFTGSGSGTDFTLTISNVQSEDLAEYFCHQYNSHPLTFGGGTKLEIKR
- Kd [1]: 2.8 nM
- Kd [2]: 2.8 nM

Source: patent US20250304662A1 (published 2025)
